From the supplement of paper PMC9112550, “Optimization of the antimicrobial peptide Bac7 by deep mutational scanning” (BMC Biology, 2022)

System: Escherichia coli TOP10
Experiment: shrunken log2 fold change of peptide-encoding DNA abundance (4.5 h post-induction vs induction); higher = less antimicrobial activity (less host growth inhibition)
Conditions: time post-induction: 4.5 h; library: site-saturation at positions 5, 18, 19, 20
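Note: peptides expressed intracellularly from a pBAD plasmid library in pooled LB shake-flask culture, induced with 0.3% L-arabinose, DNA abundance read by NGS, three biological replicates, DESeq2 with apeglm shrinkage.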

Sequence | shrunken log2 fold change
RRIRVRPPRLPRPRPRPHYEPRP | -0.173
RRIRVRPPRLPRPRPRPICRPRP | 0.177
RRIRVRPPRLPRPRPRPIDHPRP | -0.152
RRIRVRPPRLPRPRPRPIDIPRP | -0.11
RRIRVRPPRLPRPRPRPIEKPRP | 0.0502
RRIRVRPPRLPRPRPRPIEVPRP | -0.141
RRIRVRPPRLPRPRPRPIHKPRP | -0.203
RRIRVRPPRLPRPRPRPIIDPRP | 0.0493
RRIRVRPPRLPRPRPRPIIKPRP | -0.351
RRIRVRPPRLPRPRPRPIIWPRP | -0.098
RRIRVRPPRLPRPRPRPIKSPRP | -0.184
RRIRVRPPRLPRPRPRPILIPRP | -0.413
RRIRVRPPRLPRPRPRPIMAPRP | -0.111
RRIRVRPPRLPRPRPRPINFPRP | -0.458
RRIRVRPPRLPRPRPRPINLPRP | -0.304
RRIRVRPPRLPRPRPRPIPFPRP | 0.0609
RRIRVRPPRLPRPRPRPIPMPRP | -0.094
RRIRVRPPRLPRPRPRPIRMPRP | -0.243
RRIRVRPPRLPRPRPRPITQPRP | -0.0754
RRIRVRPPRLPRPRPRPITTPRP | -0.304
RRIRVRPPRLPRPRPRPIWAPRP | 0.256
RRIRVRPPRLPRPRPRPIYEPRP | -0.184
RRIRVRPPRLPRPRPRPKCCPRP | -0.0953
RRIRVRPPRLPRPRPRPKCEPRP | 0.0936
RRIRVRPPRLPRPRPRPKEVPRP | 0.177

Sequence | shrunken log2 fold change
RRIRVRPPRLPRPRPRPKGCPRP | 0.015
RRIRVRPPRLPRPRPRPKHKPRP | -0.114
RRIRVRPPRLPRPRPRPKISPRP | -0.234
RRIRVRPPRLPRPRPRPKKHPRP | -0.0486
RRIRVRPPRLPRPRPRPKKKPRP | -0.356
RRIRVRPPRLPRPRPRPKKMPRP | -0.0803
RRIRVRPPRLPRPRPRPKLMPRP | -0.203
RRIRVRPPRLPRPRPRPKLNPRP | -0.212
RRIRVRPPRLPRPRPRPKLSPRP | -0.0136
RRIRVRPPRLPRPRPRPKMPPRP | -0.0804
RRIRVRPPRLPRPRPRPKMSPRP | -0.122
RRIRVRPPRLPRPRPRPKNAPRP | -0.197
RRIRVRPPRLPRPRPRPKPLPRP | 0.196
RRIRVRPPRLPRPRPRPKQSPRP | 0.0123
RRIRVRPPRLPRPRPRPKQVPRP | -0.0801
RRIRVRPPRLPRPRPRPKSYPRP | -0.425
RRIRVRPPRLPRPRPRPKVHPRP | -0.192
RRIRVRPPRLPRPRPRPKVQPRP | 3.74
RRIRVRPPRLPRPRPRPKYMPRP | -0.433
RRIRVRPPRLPRPRPRPKYYPRP | -0.921
RRIRVRPPRLPRPRPRPLCQPRP | 0.258
RRIRVRPPRLPRPRPRPLDEPRP | -0.0276
RRIRVRPPRLPRPRPRPLFNPRP | -0.465
RRIRVRPPRLPRPRPRPLGFPRP | 0.196
RRIRVRPPRLPRPRPRPLGIPRP | -0.105

Sequence | shrunken log2 fold change
RRIRVRPPRLPRPRPRPLKWPRP | -0.235
RRIRVRPPRLPRPRPRPLLTPRP | -0.0362
RRIRVRPPRLPRPRPRPLMMPRP | -0.331
RRIRVRPPRLPRPRPRPLMPPRP | 0.0146
RRIRVRPPRLPRPRPRPLMSPRP | 0.0187
RRIRVRPPRLPRPRPRPLPNPRP | -0.0957
RRIRVRPPRLPRPRPRPLPQPRP | 0.216
RRIRVRPPRLPRPRPRPLQSPRP | 0.12
RRIRVRPPRLPRPRPRPLRHPRP | 0.288
RRIRVRPPRLPRPRPRPLSFPRP | -0.426
RRIRVRPPRLPRPRPRPLTLPRP | -0.416
RRIRVRPPRLPRPRPRPLTMPRP | -0.319
RRIRVRPPRLPRPRPRPLTQPRP | 0.149
RRIRVRPPRLPRPRPRPLTRPRP | 0.196
RRIRVRPPRLPRPRPRPLVCPRP | -0.253
RRIRVRPPRLPRPRPRPLVRPRP | 0.0251
RRIRVRPPRLPRPRPRPLWFPRP | 0.125
RRIRVRPPRLPRPRPRPLWMPRP | -0.523
RRIRVRPPRLPRPRPRPLWVPRP | -0.147
RRIRVRPPRLPRPRPRPLYIPRP | -0.555
RRIRVRPPRLPRPRPRPLYRPRP | -0.047
RRIRVRPPRLPRPRPRPMACPRP | -0.147
RRIRVRPPRLPRPRPRPMCSPRP | -0.237
RRIRVRPPRLPRPRPRPMDSPRP | -0.134
RRIRVRPPRLPRPRPRPMEWPRP | -0.125
